Measured values reported in the supplement of paper PMC12764529.
± gives the half width of the 95% confidence interval.

Test: folding stability dG unfold (combined trypsin and chymotrypsin); higher = more stable
Method in brief: (§1)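 Only designs with AlphaFold2 dimer inter-PAE above 15 were retained; each was a mini-protein under 80 residues with no cysteine, in a PA-tagged cDNA display construct. After digestion with trypsin and chymotrypsin and sequencing, K50 was inferred by Bayesian fitting of counts, and unfolding free energy was derived per protease or combined against a sequence-predicted unfolded-state K50 and a shared folded-state K50.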

Sequence | folding stability dG unfold [kcal/mol]
SAKLEIELNGYKIVSVEVNEDGTVKMKIEVDGKLYELTLKVKLPPPKVEVKEEKKEVKEVKFVKEGEEKSAG [r14_218_TrROS_Hall] | 2.05 ± 0.3
SAGGSAKIEITIFIPGMSEEEVKKLAEELAEELRKKGLSDEEIKEIKIKVYKVPVYKTEDGKLVKVSAGGSA [r15_684_TrROS_Hall] | 1.44 ± 0.089
SAGPLPEDVAAGKPVDVEAPIPLRRKDGDLLAVFPITGPMTVKELLEVLEAIRERARELDLPPVEDLDRSAG [r5_606_TrMRF] | 0.181 ± 0.065
SAGGSAMDAKVVDLSLPFTLSEDGSLTATVTIEFPDGSKVPIEIPGREDGELKLEEILAAAKEALGSAGGSA [r15_233_TrMRF] | 0.478 ± 0.14
SAGGSAGGSEYRIELELFRTPEGGLVVPVRIYPPDGGRFEGPASLEELVERFGFSFPPLLELLSAGGSAGGS [r20_235_TrMRF] | 2.15 ± 0.092
SAGMKKVKIETTEFREFEGGEREIVMKVYKPDGSEVATVVLPFPPDLSEEEMRERAEAEAKKLAEELGLSAG [r5_697_JUSTAS] | 0.636 ± 0.21
SAMKITEITYDKETNTITITVEIKLPPGVKKIKLKLFIDGAEIEEITMEVDEETGTVRITLKIRIPKDASAG [r14_244_TrROS_Hall] | > 6
SAGWIIRITLPDNGRTIEIDFENGYIIKITSPDEGKPRVIPIPPDDIREWIKELFPGPVRIVEIYPLPKSAG [r5_519_TrROS] | 2.69 ± 0.083
SAGGSAGGSAGTVIRVRDKNGKIVEISLEEAAELLGIPPSELTLEDIVKAFAEKVDSIEILSSAGGSAGGSA [r18_403_TrMRF] | 2.91 ± 0.064
SAGGSAGGSAGPFEGYRDKKGKYYLETPDGTKELDSEEELEEEKKRLLEEGIPINVKPSASAGGSAGGSAGG [r17_35_JUSTAS] | 0.458 ± 0.26
SAGGSAGGSAGEIVEVDGKLYIRVRTKDGEWKLIEMSADEIASLPAENVEEVEIVDPKDLSAGGSAGGSAGG [r11_779_TrROS_Hall] | 3.08 ± 0.11
SAGGSAGGSAGGSEVEVLDSRPLPDGHHLVLVRFPDGSYALYRIYPDGSVEVEVFSDDGSAGGSAGGSAGGS [r4_483_TrMRF] | 3.81 ± 0.084
SAGGSAGGSDKIKELAKKLKIVKVEKKKDGKYILLVKDEKTGKLYEIEVDLKTNKVTIKELKPSAGGSAGGS [r12_944_TrROS_Hall] | 3.82 ± 0.39
SAGRKIEIHVPYDELRELFGPGQTAEDLADWIAQEGYQIEDIEVEPEPNPNNGKKYYRVTFEVKPPKKSAGG [r19_376_TrROS] | 0.95 ± 0.11
SAGGSAGGSAGGFKLPPGKPIEFPIKHGGEPYPVEIWRDPNKLMIHFPGNNQWIPADDIKSAGGSAGGSAGG [r7_37_TrROS] | -0.931 ± 0.58
SAGGSAGGSAGGPTLELEITLPDGFKLRVTFDPEKGLRVELVEPVPAPPPKVEYRSLEDLSAGGSAGGSAGG [r11_188_TrROS_Hall] | 1.37 ± 0.18
SAKKVEVKKIKVEVTFYDKNGKKVKKKKATITVVKVDGKYYVTIYDENTGKKYVFEFPSLEEAKKALKKSAG [r14_508_TrROS_Hall] | 2.77 ± 0.33
SAGGSAGGSMKVVKVELTLTGPGGEVTYLEEEIEVPEDELGEIEVSLPDENLSYEVTVEVIEESAGGSAGGS [r12_354_JUSTAS] | 1.12 ± 0.18
SAGGSAGGSAGGGMSSAPPVTITPVSETTERLPNGTLVRTTTYAVDDGSTVTTTTVTPVSSAGGSAGGSAGG [r7_948_JUSTAS] | 0.602 ± 0.1
SAGGSAGGSAGPNAVYLGELEVTTRNPDGDRPLRVRVELYLVPTPEGLRLLARVLEVEELSAGGSAGGSAGG [r11_113_TrMRF] | 3.4 ± 0.04
SAGGSAGGSAGLPPGDYRLFPFTVTITIPPIKVKDPNGDEHEIDNLEISITIYFFVPAGDSAGGSAGGSAGG [r11_907_TrROS] | 4.03 ± 0.34

Sequence | folding stability dG unfold [kcal/mol]
SAGGKDGKPKPKVEPEITVQFYIPLPPDDLTPEEIAQWMSDHFGFPFTNVEIERHPEDNYYRVSFTIRSAGG [r13_457_TrROS] | 2.4 ± 0.086
SAGGTVTTEEVDDATYITVTKPSGETLTITAPALPDDTYLVTVYDPKTGKSTTKTVSSLDEAIKLLGSAGGS [r8_230_JUSTAS] | 2.08 ± 0.098
SAGGKPNWVWFKITINVTPEQLENMTLDEIADRVIDELMKLGFPIKKIEIDEIQWDGDRVTIYIRIRVSAGG [r13_432_TrROS] | 4.35 ± 0.14
SAGMIEITVEVPAEDMTEEELKELAEELARALREAGLPEDVKIVDVRVERLPDGTVRVTIKIEVKPPPSAGG [r19_87_TrROS_Hall] | 4.36 ± 0.39
SAGGSAPSSGNVLEIKVEKLPDGTLVGTLTVKDPNSSNTTTIEITIPSSKTPEEAEAELKKIVEEASAGGSA [r15_181_JUSTAS] | 2.11 ± 0.057
SAGGMKKYKIKVENLPPGARIITPDGREIKPGEEVEIELPEDVKEIYVILPDGKIVKVKVEEVEPEEESAGG [r13_441_TrROS_Hall] | 3.71 ± 0.76
SAMEYTLEFDNLKGLTADEIEKAFRDEGYPDVKINGIRRNPDDWTITVHYGPGMPPNRVQNAIRKAIQESAG [r14_657_TrROS] | 1.62 ± 0.11
SAGGSAGGSAGKKVLVLSEDEIAELLGLSKEEIENMSEEEKEKLALELAKKLGIDEVIITSAGGSAGGSAGG [r11_80_TrROS_Hall] | 3.54 ± 0.055
SAPDVGPEERARRLIEEARAEVEAARAAGDPSVPRRVVFDELAVAHPEEAARILEEAARLGIPVEVRPPSAG [r14_908_JUSTAS] | 0.748 ± 0.083
SAGGSALKIMVEPDPEDGTVRVWFMIPNPENGEEFMVQAEIDPNGKIEDVEVYPNGNMIWITFKLPSAGGSA [r15_557_TrROS] | 2.96 ± 0.087
SSKTVTVTTEEEEKEAREKIKELVKPGKSVDVEITMTGPDGTRTRRTYKITTNPDGTITIEETETPLPPPSA [r9_1023_JUSTAS] | 2.17 ± 0.21
SAGGESTPEIEPVATLELPTPDGRPITVEVYRLKDGTVRVVVRNPNPPETITLTIPAKEGETIPIFLSAGGS [r16_566_TrMRF] | 2.11 ± 0.067
SAGGSAGLEGVAKAILDKLPPNRKIAAFTVNEEEAKTATFTTPDGNEINITAAGDKIASIDIIDAESAGGSA [r15_175_TrMRF] | 0.0224 ± 0.1
SMTLVLENEDGSLYRIEFDEETGEIYIYNAETGEKYRITFKDGKTEEINAKDLSLEELKALPGLKIEPVPSA [r9_205_TrROS_Hall] | 3.13 ± 0.056
SAGEKKLTEEEIKKLVEELLKKLKPGEKEKVTLEIELTLEDGRKVKIRITVEVKDGKLVVKIEVEELPSAGG [r19_220_TrROS_Hall] | 3.68 ± 0.46
SAGGSFHDLAKELAKKRGLKKVSINMHPEDNSMNINIQNPEKGRPVQGNIPMEDMTPETVLDQIENILESAG [r5_896_TrROS] | -0.0716 ± 0.24
SAGGSAGGSAGEVVLSPTDKTLTLTSFDPKTGVTYYTVFYPATGTTSTTSTGNLESLIAASAGGSAGGSAGG [r17_300_JUSTAS] | 0.929 ± 0.084
SAGGSAGGSKPGKPREIMIPFPDNWFMSIRVWPGRIEIENPDNGKEFEIPIGAPIEIELFPLDSAGGSAGGS [r12_227_TrROS] | 1.89 ± 0.17
SAGGSAGGSAGGPPVTLLVVVRNEDGSLYLVRVEFDLETNEVKVEVFTLDDLKNLPEELSAGGSAGGSAGGS [r10_1077_TrROS_Hall] | 3.26 ± 0.25
STKLLPFEEALKEAEKAIKEGKKKVNITIYTPDGKTFNLTDVEKVKEFIEKEFPGISLSELTVTVSITPPES [r1_325_JUSTAS] | 3.3 ± 0.067

Test: folding stability dG unfold from trypsin proteolysis; higher = more stable
Method in brief: as §1

Sequence | folding stability dG unfold [kcal/mol]
SAKLEIELNGYKIVSVEVNEDGTVKMKIEVDGKLYELTLKVKLPPPKVEVKEEKKEVKEVKFVKEGEEKSAG [r14_218_TrROS_Hall] | 1.18 ± 0.096
SAGGSAKIEITIFIPGMSEEEVKKLAEELAEELRKKGLSDEEIKEIKIKVYKVPVYKTEDGKLVKVSAGGSA [r15_684_TrROS_Hall] | 0.884 ± 0.046
SAGPLPEDVAAGKPVDVEAPIPLRRKDGDLLAVFPITGPMTVKELLEVLEAIRERARELDLPPVEDLDRSAG [r5_606_TrMRF] | 0.36 ± 0.047
SAGGSAMDAKVVDLSLPFTLSEDGSLTATVTIEFPDGSKVPIEIPGREDGELKLEEILAAAKEALGSAGGSA [r15_233_TrMRF] | 0.553 ± 0.093
SAGGSAGGSEYRIELELFRTPEGGLVVPVRIYPPDGGRFEGPASLEELVERFGFSFPPLLELLSAGGSAGGS [r20_235_TrMRF] | 1.58 ± 0.035
SAGMKKVKIETTEFREFEGGEREIVMKVYKPDGSEVATVVLPFPPDLSEEEMRERAEAEAKKLAEELGLSAG [r5_697_JUSTAS] | 0.581 ± 0.094
SAMKITEITYDKETNTITITVEIKLPPGVKKIKLKLFIDGAEIEEITMEVDEETGTVRITLKIRIPKDASAG [r14_244_TrROS_Hall] | 4.9 ± 0.88
SAGWIIRITLPDNGRTIEIDFENGYIIKITSPDEGKPRVIPIPPDDIREWIKELFPGPVRIVEIYPLPKSAG [r5_519_TrROS] | 2.21 ± 0.042
SAGGSAGGSAGTVIRVRDKNGKIVEISLEEAAELLGIPPSELTLEDIVKAFAEKVDSIEILSSAGGSAGGSA [r18_403_TrMRF] | 3.6 ± 0.1
SAGGSAGGSAGPFEGYRDKKGKYYLETPDGTKELDSEEELEEEKKRLLEEGIPINVKPSASAGGSAGGSAGG [r17_35_JUSTAS] | -0.308 ± 0.11
SAGGSAGGSAGEIVEVDGKLYIRVRTKDGEWKLIEMSADEIASLPAENVEEVEIVDPKDLSAGGSAGGSAGG [r11_779_TrROS_Hall] | 2.6 ± 0.1
SAGGSAGGSAGGSEVEVLDSRPLPDGHHLVLVRFPDGSYALYRIYPDGSVEVEVFSDDGSAGGSAGGSAGGS [r4_483_TrMRF] | 2.47 ± 0.066
SAGGSAGGSDKIKELAKKLKIVKVEKKKDGKYILLVKDEKTGKLYEIEVDLKTNKVTIKELKPSAGGSAGGS [r12_944_TrROS_Hall] | 2.81 ± 0.26
SAGRKIEIHVPYDELRELFGPGQTAEDLADWIAQEGYQIEDIEVEPEPNPNNGKKYYRVTFEVKPPKKSAGG [r19_376_TrROS] | 0.345 ± 0.054
SAGGSAGGSAGGFKLPPGKPIEFPIKHGGEPYPVEIWRDPNKLMIHFPGNNQWIPADDIKSAGGSAGGSAGG [r7_37_TrROS] | -0.828 ± 0.45
SAGGSAGGSAGGPTLELEITLPDGFKLRVTFDPEKGLRVELVEPVPAPPPKVEYRSLEDLSAGGSAGGSAGG [r11_188_TrROS_Hall] | 0.552 ± 0.13
SAKKVEVKKIKVEVTFYDKNGKKVKKKKATITVVKVDGKYYVTIYDENTGKKYVFEFPSLEEAKKALKKSAG [r14_508_TrROS_Hall] | 1.91 ± 0.11
SAGGSAGGSMKVVKVELTLTGPGGEVTYLEEEIEVPEDELGEIEVSLPDENLSYEVTVEVIEESAGGSAGGS [r12_354_JUSTAS] | 0.444 ± 0.12
SAGGSAGGSAGGGMSSAPPVTITPVSETTERLPNGTLVRTTTYAVDDGSTVTTTTVTPVSSAGGSAGGSAGG [r7_948_JUSTAS] | -0.127 ± 0.099
SAGGSAGGSAGPNAVYLGELEVTTRNPDGDRPLRVRVELYLVPTPEGLRLLARVLEVEELSAGGSAGGSAGG [r11_113_TrMRF] | 2.81 ± 0.052
